Assay results: doi:10.1101/2021.07.09.451618

Molecular target: F-actin, rabbit skeletal muscle (rabbit) (UniProt P68135)

Substance | kcat: extrapolated maximum catalytic rate of the actin-activated ATPase [s⁻¹]
M15-2IQ : ELC : RLC complex (1:1:1), jordan (p.D1647G) MYO15 motor domain (from UniProt P60661 1-151) | 0.87
M15-2IQ : ELC : RLC complex (1:1:1), wild-type MYO15 motor domain (from UniProt P60661 1-151) | 5.8
